# Measured values reported in publication PMC3115021, “Dynamics of Cdk1 Substrate Specificity during the Cell Cycle” (Molecular Cell, 2011).
# B1: FIR1: purified yeast protein tested as Cdk1 substrate (protein, UniProt P40020 1-876, looked up)
# Factor interacting with REF2: MSLPVTPVKSKVCSTLSIQHEMDHDQCRDVLCPRENLLAINRTNNIESVAIPRQRSSKNKKPHEHTQSQVRFSIPDPNEISQDSPLKIVFPKSGNETERRMSTSSLLMNSHGHLVDMHSKILVDVPKEVWKFHHNRRKKCESRHRKTRSDVRSNTSSSGKEPNHSRSKSLQSIIVDTMNTYRATEVETSINENTSNISQVSPLNLSFDRPPPLTPEKNLYLTPESPLNRYHLPVPLEISLPPYLSPQNKDKKRSSLVYDGDGYSQFQEGNTSSSTESSLEQPSSSYSDEDDSIPYAHHDVSFELNNADADKLLGIDENANVNLKIQRRNLKNPQHIKSKTDRECEEKNTEKNVSLKILSTPNKLIDIPDLEHMKSPPSTGLNGTLKFFQQFEPSEEPTSPTRQVNPESLDKLDMSFKFPSSTTNNNVDKVHENRNSGDTNNEDFLKVDTSPVNQSFESRRQMLIDLQKSPTNNNPRIHKHRRSRSVHNIDDISLNFEATSTPPAPTSAPSIPVEHSNPCTSIEIPKRSPLRFTSSPKTSDIPPEAQSPKNGSFLQEISVPSIQIIPDESISHTREPSPSLIECPEDENEAFSTEVADHSIAIISETKSVPSIEPFKPLSSFNSFGQEIQNKEPTPLNQTPTDLIGKQRNCVNPHSIPFSVLSSNSQSSQSGSSKSSYNSEFSSNTAITDTTSQPSVTINRSTLEHNFIEEKRSIKNLGHGPPSQKNNYSFPRNKNTPSNRHDLDFNTIYEKRDGKMVEVILLDEDEDVGLKNNDISRTRVCHAQKAKNEQQKKRLSHCNEILGMCDKTADDAKRIIYQLVNEKHKFSEKGQQTKPKKSRVLPPLPFPLYDEKGNSLIPNKYQSSIHNDIPSHRKLK
# B2: NDD1: component of the transcription factor complex controlling G2/M-specific genes, tested as Cdk1 substrate (protein, UniProt Q08887 1-554, looked up)
# Nuclear division defective …: MDRDISYQQNYTSTGATATSSRQPSTDNNADTNFLKVMSEFKYNFNSPLPTTTQFPTPYSSNQYQQTQDHFANTDAHNSSSNESSLVENSILPHHQQIQQQQQQQQQQQQQQQALGSLVPPAVTRTDTSETLDDINVQPSSVLQFGNSLPSEFLVASPEQFKEFLLDSPSTNFNFFHKTPAKTPLRFVTDSNGAQQSTTENPGQQQNVFSNVDLNNLLKSNGKTPSSSCTGAFSRTPLSKIDMNLMFNQPLPTSPSKRFSSLSLTPYGRKILNDVGTPYAKALISSNSALVDFQKARKDITTNATSIGLENANNILQRTPLRSNNKKLFIKTPQDTINSTSTLTKDNENKQDIYGSSPTTIQLNSSITKSISKLDNSRIPLLASRSDNILDSNVDDQLFDLGLTRLPLSPTPNCNSLHSTTTGTSALQIPELPKMGSFRSDTGINPISSSNTVSFKSKSGNNNSKGRIKKNGKKPSKFQIIVANIDQFNQDTSSSSLSSSLNASSSAGNSNSNVTKKRASKLKRSQSLLSDSGSKSQARKSCNSKSNGNLFNSQ
# Assays:
# Test in all cases: Quantitative phosphorylation assay of T33-Sic1ΔC constructs and recombinant substrates
# Type in all cases: biochemical
# Conditions in all cases: Table S2; purified protein substrate; relative values, not divided by [S]
# Clb2-Cdk1 = target: T1, Clb2-Cdk1 (Saccharomyces cerevisiae, UniProt P00546+P24869)
# T1 construct: We purified the four cyclin-Cdk1 complexes from yeast; made in house; host or cells: S. cerevisiae strain DOM0077 (gal-CLB2-TAP, sic1 deleted); Cks1 from bacteria
# Procedure: (§1) For the quantitative phosphorylation assays of T33-Sic1ΔC constructs and recombinant substrates, substrate concentrations were kept in the range of 0.5–2 μM (in the linear [S] versus v0 range, several-fold below the estimated KM value), and initial velocity conditions were defined as an initial substrate turnover of up to 10% of the total turnover. For the steady-state peptide kinetics of the Histone peptide PKTPKKAKKL, a similar assay composition was used as for protein substrates, and phosphocellulose paper was used for the quantification of the phosphorylated substrate. […]
# (§2) similar substrate specificity as the Cln2-Cdk1 version purified using a TAP-tag. N-terminally 6His-tagged recombinant T33-Sic1ΔC constructs and substrates were cloned into the pET28a vector and purified by standard cobalt affinity chromatography and elution with 200 mM imidazole. 6His-Fin1 was purified as described previously (Woodbury and Morgan, 2007). Substrates cloned into the pGEX-4T-1 were purified on glutathione agarose columns using 5 mM reduced glutathione for elution. Cks1 was purified as described previously (Reynard et al., 2000). The optimal working concentration for purified Cks1 was taken as 500 nM based on optimization performed for cyclin-Cdk1 preparations and T33-Sic1ΔC as a substrate.
# (§3) For the quantitative phosphorylation assays of T33-Sic1ΔC constructs and recombinant substrates, substrate concentrations were kept in the range of 0.5-2 μM (in the linear [S] vs v0 range, several-fold below the estimated KM value), and the initial velocity conditions were defined as an initial substrate turnover ranging up to 10% of the total turnover. The latter was estimated by a long-term incubation with excess amounts of cyclin-Cdk1 and 32P-γ-ATP in the standard reaction mixture given below. About 1-10 nM of purified kinase complex was used, reaction aliquots were taken at two or more time points, and the reaction was stopped by SDS-PAGE sample buffer. The relative kcat/KM values for the substrates were calculated as the ratio of v0/[S], which was determined from at least two independent experiments. The basal composition of the assay mixture contained 50 mM Hepes, pH 7.4, 100 mM NaCl, 0.1% NP-40, 20 mM imidazole, 0.1 mg/ml 2HA peptide, 2% glycerol, 2 mM EGTA, 0.2 mg/ml BSA, […], and 500 μM ATP (with added 32P-γ-ATP (Perkin Elmer)).
# (§4) About 1-10 nM of purified kinase complex was used, reaction aliquots were taken at two or more time points, and the reaction was stopped by SDS-PAGE sample buffer. For the steady-state peptide kinetics of the Histone peptide PKTPKKAKKL, a similar assay composition was used as for protein substrates and the standard phosphocellulose method was applied for the quantification of the phosphorylated substrate (Loog and Morgan, 2005). Synthetic peptides as competitor agents were used in 4 mM final concentrations. […]
# Clb3-Cdk1 = target: T2, Clb3-Cdk1 (Saccharomyces cerevisiae, UniProt P00546+P24870)
# T2 construct: We purified the four cyclin-Cdk1 complexes from yeast; made in house; host or cells: S. cerevisiae strain DOM0957 (gal-CLB3-TAP, sic1 deleted); Cks1 from bacteria
# Procedure: as §1, §2, §3, §4
# Clb5-Cdk1 = target: T3, Clb5-Cdk1 (Saccharomyces cerevisiae, UniProt P00546+P30283)
# T3 construct: We purified the four cyclin-Cdk1 complexes from yeast; made in house; host or cells: S. cerevisiae strain DOM0076 (gal-CLB5-TAP, sic1 deleted); Cks1 from bacteria
# Procedure: as §1, §2, §3, §4
# Cln2-Cdk1 = target: T4, Cln2-Cdk1 (Saccharomyces cerevisiae, UniProt P00546+P20438)
# T4 construct: We purified the four cyclin-Cdk1 complexes from yeast; made in house; host or cells: S. cerevisiae strain DMY305 (galactose-induced); Cks1 from bacteria
# Procedure: as §1, §2, §3, §4
# Clb2hpm-Cdk1 = target: T5, Clb2hpm-Cdk1 (Saccharomyces cerevisiae, UniProt P00546)
# T5 construct: made in house; host or cells: S. cerevisiae strain DOM0964 (gal-CLB2hpm-TAP, sic1 deleted); Cks1 from bacteria
# Procedure: (§5) For the quantitative phosphorylation assays of T33-Sic1ΔC constructs and recombinant substrates, substrate concentrations were kept in the range of 0.5–2 μM (in the linear [S] versus v0 range, several-fold below the estimated KM value), and initial velocity conditions were defined as an initial substrate turnover of up to 10% of the total turnover. For the steady-state peptide kinetics of the Histone peptide PKTPKKAKKL, a similar assay composition was used as for protein substrates, and phosphocellulose paper was used for the quantification of the phosphorylated substrate.
# (§6) Supplemental Experimental Procedures
# (§7) Plasmid constructs and yeast strains
# (§8) For tandem affinity purification (TAP) of cyclin-Cdk1 complexes, the cyclin genes were cloned into the 2 micron vector pRSAB1234 containing a GAL1 promoter and the C-terminal TAP-tag. To purify different 6His-T33-Sic1ΔC forms for kinase assays, the C-terminally truncated fragment of Sic1 (with a stop codon inserted after amino acid 215) was cloned into the NheI/BamHI site of the bacterial expression vector pET28a (Invitrogen). Mutagenesis of cyclins or substrates was performed using single-stranded pRSAB1234 or pET28a vector constructs as templates. The triple mutants in the hydrophobic patch (hpm) of Clb5 and Clb2 were described previously (Loog and Morgan, 2005), and the hpm of Clb3 (Phe-201, Leu-205 and Trp-208 mutated to alanines) was designed according to sequence homology with other B-type cyclins. In T33-Sic1ΔC constructs, the other Cdk sites bearing the consensus motif S/T-P were mutated to Ala-Ala in order to prevent any possible (pseudo)substrate competition. The other Cdk substrates were cloned as full-length forms into bacterial expression vectors pET28a or pGEX-4T-1. Cdh1 was purified using the baculovirus system and was a kind gift from Monica Rodrigo-Brenni (UCSF). […]
# The […]
# (§9) pRSAB1234 analogously to the cyclin-Cdk1 complexes. For C-terminal tagging of cyclin genes in their chromosomal loci, the Pringle method was applied (Longtine et al., 1998). Lists of plasmid […]
# (§10) The TAP method was applied for purification of cyclin-Cdk1 complexes and Swe1 as described previously for Clb5-TAP-Cdk1 and Clb2-TAP-Cdk1 (Puig et al., 2001; Ubersax et al., 2003). […]
# as §2, with “tagged” for “similar substrate specificity as the Cln2-Cdk1 version purified using a TAP-tag. N-terminally 6His-tagged”
# as §3
# (§11) About 1-10 nM of purified kinase complex was used, reaction aliquots were taken at two or more […]
# Clb3hpm-Cdk1 = target: T6, Clb3hpm-Cdk1 (Saccharomyces cerevisiae, UniProt P00546+P24870)
# T6 construct: made in house; host or cells: S. cerevisiae strain MK0168 (gal-CLB3hpm-TAP, sic1 deleted); Cks1 from bacteria
# Procedure: as §5, §6, §7, §8
# The […]
# as §9, §10
# as §2, with “tagged” for “similar substrate specificity as the Cln2-Cdk1 version purified using a TAP-tag. N-terminally 6His-tagged”
# as §3, §11
# Clb5hpm-Cdk1 = target: T7, Clb5hpm-Cdk1 (Saccharomyces cerevisiae, UniProt P00546)
# T7 construct: made in house; host or cells: S. cerevisiae strain DOM0963 (gal-CLB5hpm-TAP, sic1 deleted); Cks1 from bacteria
# Procedure: as §5, §6, §7, §8
# The […]
# as §9, §10
# as §2, with “tagged” for “similar substrate specificity as the Cln2-Cdk1 version purified using a TAP-tag. N-terminally 6His-tagged”
# as §3, §11
# T4 sequence (P00546 2-298 limits assumed): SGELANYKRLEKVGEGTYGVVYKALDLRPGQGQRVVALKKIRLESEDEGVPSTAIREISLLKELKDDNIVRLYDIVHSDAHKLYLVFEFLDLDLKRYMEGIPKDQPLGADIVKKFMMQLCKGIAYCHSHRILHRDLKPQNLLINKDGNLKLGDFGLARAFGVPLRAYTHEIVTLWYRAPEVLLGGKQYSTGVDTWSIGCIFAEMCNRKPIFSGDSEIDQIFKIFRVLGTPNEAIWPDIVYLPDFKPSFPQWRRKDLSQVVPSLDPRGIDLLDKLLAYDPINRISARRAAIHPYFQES
# T4 sequence (P20438 whole entry partner): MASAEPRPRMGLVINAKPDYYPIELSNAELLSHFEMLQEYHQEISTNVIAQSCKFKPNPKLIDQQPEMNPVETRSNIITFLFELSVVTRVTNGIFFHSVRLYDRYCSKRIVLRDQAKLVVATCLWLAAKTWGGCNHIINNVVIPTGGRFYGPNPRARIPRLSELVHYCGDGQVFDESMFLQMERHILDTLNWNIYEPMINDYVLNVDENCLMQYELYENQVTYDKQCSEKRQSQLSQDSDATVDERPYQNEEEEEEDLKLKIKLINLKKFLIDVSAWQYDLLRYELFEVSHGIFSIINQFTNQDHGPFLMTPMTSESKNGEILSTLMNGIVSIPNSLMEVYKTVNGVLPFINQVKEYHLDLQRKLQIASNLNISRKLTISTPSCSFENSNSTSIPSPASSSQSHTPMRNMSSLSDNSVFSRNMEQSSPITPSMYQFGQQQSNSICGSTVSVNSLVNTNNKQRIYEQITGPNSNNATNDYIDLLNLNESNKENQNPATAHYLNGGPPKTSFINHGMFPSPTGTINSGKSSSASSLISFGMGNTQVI
# T4 sequence (P20486 whole entry partner): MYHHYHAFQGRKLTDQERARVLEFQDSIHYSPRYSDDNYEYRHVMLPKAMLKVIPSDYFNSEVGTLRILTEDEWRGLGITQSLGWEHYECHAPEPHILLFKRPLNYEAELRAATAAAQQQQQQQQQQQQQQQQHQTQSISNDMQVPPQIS
# T2 sequence (P00546 2-298 limits assumed): as the sequence (P00546 2-298 limits assumed) above
# T2 sequence (P24870 whole entry partner): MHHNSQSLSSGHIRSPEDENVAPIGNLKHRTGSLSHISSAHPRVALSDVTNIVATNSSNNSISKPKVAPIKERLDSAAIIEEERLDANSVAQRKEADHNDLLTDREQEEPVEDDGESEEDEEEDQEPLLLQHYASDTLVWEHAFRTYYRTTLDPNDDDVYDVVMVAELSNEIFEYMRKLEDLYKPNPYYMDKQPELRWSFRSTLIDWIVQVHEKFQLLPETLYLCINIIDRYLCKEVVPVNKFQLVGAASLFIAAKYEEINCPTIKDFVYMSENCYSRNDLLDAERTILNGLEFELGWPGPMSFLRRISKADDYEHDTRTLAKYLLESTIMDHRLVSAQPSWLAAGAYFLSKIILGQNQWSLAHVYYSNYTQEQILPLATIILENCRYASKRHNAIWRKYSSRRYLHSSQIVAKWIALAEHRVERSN
# T2 sequence (P20486 whole entry partner): as the sequence (P20486 whole entry partner) above
# T1 sequence (P00546 2-298 limits assumed): as the sequence (P00546 2-298 limits assumed) above
# T1 sequence (P24869 2-491 partner limits assumed): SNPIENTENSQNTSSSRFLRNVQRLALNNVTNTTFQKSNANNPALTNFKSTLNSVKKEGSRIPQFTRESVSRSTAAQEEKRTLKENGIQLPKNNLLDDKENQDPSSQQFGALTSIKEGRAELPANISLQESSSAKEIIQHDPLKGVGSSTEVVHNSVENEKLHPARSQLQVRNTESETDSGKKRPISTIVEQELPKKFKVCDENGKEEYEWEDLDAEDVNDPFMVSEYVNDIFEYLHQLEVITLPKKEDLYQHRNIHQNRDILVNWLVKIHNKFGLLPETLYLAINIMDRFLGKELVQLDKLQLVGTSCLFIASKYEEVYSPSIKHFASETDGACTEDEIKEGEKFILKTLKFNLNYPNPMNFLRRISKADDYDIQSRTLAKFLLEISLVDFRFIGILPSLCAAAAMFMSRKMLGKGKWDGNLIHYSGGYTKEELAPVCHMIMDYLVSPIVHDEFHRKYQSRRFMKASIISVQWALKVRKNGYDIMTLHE
# T1 sequence (P20486 whole entry partner): as the sequence (P20486 whole entry partner) above
# T5 sequence (P00546 2-298 limits assumed): as the sequence (P00546 2-298 limits assumed) above
# T3 sequence (P00546 2-298 limits assumed): as above
# T3 sequence (P30283 whole entry partner): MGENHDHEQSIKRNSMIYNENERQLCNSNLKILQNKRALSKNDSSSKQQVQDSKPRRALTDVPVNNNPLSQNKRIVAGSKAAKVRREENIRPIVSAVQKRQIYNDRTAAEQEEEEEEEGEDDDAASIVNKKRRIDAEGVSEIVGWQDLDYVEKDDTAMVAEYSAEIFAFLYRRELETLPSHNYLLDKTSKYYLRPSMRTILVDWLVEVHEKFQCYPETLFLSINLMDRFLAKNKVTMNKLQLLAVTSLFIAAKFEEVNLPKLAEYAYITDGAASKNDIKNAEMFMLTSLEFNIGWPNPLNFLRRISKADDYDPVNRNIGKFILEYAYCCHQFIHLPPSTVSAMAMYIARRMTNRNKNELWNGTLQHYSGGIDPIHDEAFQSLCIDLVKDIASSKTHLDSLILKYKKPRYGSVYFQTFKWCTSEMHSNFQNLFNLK
# T3 sequence (P20486 whole entry partner): as the sequence (P20486 whole entry partner) above
# T7 sequence (P00546 2-298 limits assumed): as the sequence (P00546 2-298 limits assumed) above
Molecule,"kcat/KM, Clb2 (Clb2-Cdk1) [relative units]","kcat/KM, Clb3 (Clb3-Cdk1) [relative units]","kcat/KM, Clb5 (Clb5-Cdk1) [relative units]","kcat/KM, Cln2 (Cln2-Cdk1) [relative units]","kcat/KM, Clb2hpm (Clb2hpm-Cdk1) [relative units]","kcat/KM, Clb3hpm (Clb3hpm-Cdk1) [relative units]","kcat/KM, Clb5hpm (Clb5hpm-Cdk1) [relative units]"
"ASH1: transcription factor, purified protein tested as Cdk1 substrate",0.462,0.697,0.111,0.422,0.389,0.134,0.052
Histone H1 [reference compound],4.900,2.237,0.605,1.394,4.287,1.957,0.427
B1,0.836,0.223,0.032,0.042,0.111,0.017,0.008
B2,3.129,2.121,0.388,0.143,1.108,0.222,0.096
